The values below come from US20240317882A1 (WUHAN BIO RAID BIOTECH, published 2024).

Where a chain is given by its changes, count along the chain named.

The chains are these.
T1: extracellular domain of CD99 (UniProt P14209 23-122, limits assumed)
T1 construct: extracellular domain; also called antigen CD99; purified recombinant extracellular domain of CD99
T1 sequence (looked up): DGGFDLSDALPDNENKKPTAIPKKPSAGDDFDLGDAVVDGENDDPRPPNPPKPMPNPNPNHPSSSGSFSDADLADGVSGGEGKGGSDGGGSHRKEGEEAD

B1: C3 anti-CD99 scFv (soluble) (scFv)
scFv: QVQLVQSGAEVKKPGASVKVSCKASGFNIKDTYIHWVRQAPGQGLEWMGRIDPANGNTKYDPKFQGRVTMTRDTSISTAYMELSRLRSDDTAVYYCARRGGVDWGQGTLVTVSSGGGGSGGGGSGGGGSDIVMTQTPLSLSVTPGQPASISCKSSQSLLDGDGKTYLNWLLQKPGQSPQRLIYLVSKLDSGVPDRFSGSGSGTDFTLKISRVEAEDVGVYYCWQGTHFPRTFGQGTKLEIK
notes: Prior-art scFv; Expressed as soluble scFv in E. coli BL21 (DE3) from PET-28b; also called C3 in CN 110590960 A
B2: C4 anti-CD99 scFv (soluble) (scFv)
scFv: EVQLQQSGAELVKPGASVKLSCTASGFDIKDTYIHWVKQRPEQGLEWIGRIDPANGDTRYDPEFQGKASLTADTSSNTAYLQFSNLTSEDTAVYYCARRGGLSWGQGTTLTVSSGGGGSGGGGSGGGGSDIQMTQSPASLSASVGETVTITCRASGNIHNYLAWYQQKQGKSPQLLVYNAKTLADGVPSRFSGSGSGTQYSLKINSLQPEDFGSYYCQHFWSTPWTFGGGTKLEIK
notes: Prior-art scFv; Expressed as soluble scFv in E. coli BL21 (DE3) from PET-28b
B3: C6 anti-CD99 scFv (soluble) (scFv)
scFv: EVQLQQSGAELVKPGASVKLSCTASGFNIKDTYIHWVKRRPEQGLEWIGRIDPANGNTKYDPKFQGKATITADTSSNTAYLQLSSLTSEDTAVYYCARRGLDYWGQGTLVTVSAGGGGSGGGGSGGGGSDVVMTQTPLTLSVTIGQPASISCKSSQSLLDGDGKTYLNWLLQRPGQSPKRLIYLVSKLDSGVPDRFTGSGSGTDFTLKISRVEAEDLGVYYCWQGTHFPRTFGGGTKLEIK
notes: Selected from a CD99 phage antibody library; Expressed as soluble scFv in E. coli BL21 (DE3) from PET-28b (Nde I / Xho I) and purified
B4: C2 anti-CD99 scFv (soluble) (scFv)
scFv: B3 scFv with L101G, D102V, Y103D
notes: Prior-art scFv; Expressed as soluble scFv in E. coli BL21 (DE3) from PET-28b; also called C2 in CN 110590960 A

The target in this experiment is T1, extracellular domain of CD99. Put plainly: surface plasmon resonance (BiacoreX), soluble scFv against extracellular domain of CD99. The source says: The nucleotide sequences shown in SEQ ID NO: 2, SEQ ID NO: 4, SEQ ID NO: 6, SEQ ID NO: 8 and SEQ ID NO: 10 were artificially synthesized with the cleavage site Nde I and Xho I each added to either terminal. The synthetic nucleotide sequences were subjected to dual-enzyme digestion, and then ligated to a cloning vector PMD-19T subjected to the same digestion process as above. The ligated product was transformed into the competent cells, and then the positive clones were screened and sequenced. The plasmid was extracted from the positive clone with a correct sequence, and then subjected to dual-enzyme digestion by using Nde I and Xho I. Meanwhile, an expression vector PET-28b was also subjected to the same dual-enzyme digestion as above. The nucleotide fragment was ligated with the vector fragment, with which E. coli was transformed. The positive clones were screened and sequenced. The positive clone with correct sequence was selected for extracting the plasmid.
Turning to B1, the affinity, expressed as Kd, was 510 nM.
As for B2, the figure is 600 nM; as for B3, 450 nM.
As for B4, the figure is 480 nM.
